1 molecule from patent publication US20020098183A1 (published 2002) can be followed below.

The target of the assay is T1, human L-selectin (on human leukocytes) (human, UniProt P14151 39-372).
T1 construct: whole, on cells; also called LECAM-1; Lam-1
T1 sequence (looked up): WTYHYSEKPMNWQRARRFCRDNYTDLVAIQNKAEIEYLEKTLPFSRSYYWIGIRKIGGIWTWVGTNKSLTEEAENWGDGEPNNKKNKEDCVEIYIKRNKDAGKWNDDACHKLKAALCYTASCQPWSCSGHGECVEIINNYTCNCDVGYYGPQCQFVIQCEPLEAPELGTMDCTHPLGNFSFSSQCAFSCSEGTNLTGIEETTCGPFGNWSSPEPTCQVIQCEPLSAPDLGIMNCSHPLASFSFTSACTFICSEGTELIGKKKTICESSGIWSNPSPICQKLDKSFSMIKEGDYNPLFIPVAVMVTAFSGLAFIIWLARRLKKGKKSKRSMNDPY
As to the kind of experiment: binding to leukocytes (e.g. FACS analysis). On the technique in general: A flow cytometer gives signals particle by particle.

B1: HuDreg 55 humanized anti-L-selectin antibody (antibody, human IgG4, kappa, V domains shown)
VH: EVQLVESGGGLVQPGGSLRLSCAASGFTFSTYAMSWVRQAPGKGLEWVASISTGGSTYYPDSVKGRFTISRDNAKNTLYLQMNSLRAEDTAVYYCARDYDGYFDYWGQGTLVTVSS
VL: DIQMTQSPSSLSASVGDRVTITCKASQSVDYDGDSYMNWYQQKPGKAPKLLIYAASNLESGIPSRFSGSGSGTDFTLTISSLQPEDFATYYCQQSNEDPWTFGQGTKVEIKR
In the case of B1, the binding result was “binds”.
